Data reported in patent US20150359849A1, “METHODS OF INCREASING NEURONAL CONNECTIVITY AND/OR TREATING A NEURODEGENERATIVE CONDITION” (PRESIDENT AND FELLOWS OF HARVARD COLLEGE, priority 2013, published 2015).

Experiments:
Type in all cases: cell-based
[1] = system: human primary neuronal cultures; assay: neuronal connectivity assay: human primary neuronal cultures fixed and stained for dendritic and synaptic markers
Procedure: FIGS. 3A-3E are experimental data showing that osteocrin promotes human neuronal connectivity. FIGS. 3A-3D are fluorescent images of primary human neurons fixed and immunostained with neuronal and synaptic markers, e.g., microtubule-associated protein 2 (MAP2), postsynaptic density protein-95 (PSD95) and synapsin after cultured for about 10 days in vitro with and without recombinant OSTN (˜50 ng/mL). […] FIG. 3E is a bar graph showing quantification results of excitatory synapse number in human neuronal cultures with increasing concentrations (˜0.5-˜50 ng/mL) of recombinant OSTN. In particular, the human neuronal cultures were treated with recombinant OSTN at a concentration of ˜0.5 ng/mL, ˜5 ng/mL, or ˜50 ng/mL. The data are represented as mean±SEM from n=5.
No role has previously been described for OSTN in nervous system development or particularly human nervous system development; however, OSTN has been reported to be secreted from bone-forming cells to promote the proliferation of bone precursors. In order to assess the roles of OSTN in human neuronal function, human primary neuronal cultures were treated with increasing concentrations of an osteocrin-inducing agent, e.g., but not limited to, a recombinant human OSTN protein. After about 6 days, samples were fixed and stained for neuronal markers, e.g., dendritic and/or synaptic markers, to examine effects on neuronal connectivity (FIGS. 3A-3D). Neuronal excitatory synaptic connections can be assayed by any methods known in the art, e.g., by quantifying the density of closely apposed puncta labeling pre- and post-synaptic markers along neuronal dendrites.

[2] = system: primary human neurons; assay: human axonal growth assay in microfluidic chambers
Procedure: FIGS. 5A-5G are experimental data showing that osteocrin promotes human axonal growth. FIG. 5A is a schematic diagram of microfluidic chambers, e.g., for use in a human axonal growth assay. The bracket denotes the area where images were approximately acquired. In FIGS. 5B-5E, primary human neurons were cultured for 21 days in vitro in the microfluidic chamber with (FIG. 5C and FIG. 5E) and without (FIG. 5B and FIG. 5D) recombinant OSTN (˜100 ng/ml). FIGS. 5B-5C are brightfield images of axons imaged live by a bright-field microscope. FIGS. 5D-5E are fluorescent images of axons fixed and immunostained with axonal marker Neurofilament (NF). FIG. 5F is a quantitative bar graph showing axonal length extension of OSTN-treated neurons, normalized to the control experiment. FIG. 5G is a quantitative bar graph showing the number of MAP2-positive neurons per measured area inside the chamber. The data are represented as mean±SEM.
To assess the effect of OSTN on axonal outgrowth, a human axonal growth assay was developed by using microfluidic chambers (e.g., obtained from Xona Microfluidics, Temecula, Calif.) (FIG. 5A). In this assay, primary human neurons were seeded in the presence or absence of OSTN into the microfluidic chambers and cultured for a sufficient period of time to allow their axons grow through microchannels that were designed to be small enough to only allow axons, not dendrites, to pass through. For example, after about 21 days, axons were imaged both live (FIGS. 5B-5C) and after stained with an axonal marker, e.g., an anti-neurofilament antibody (FIGS. 5D-5E). Human axons grew slowly in the absence of OSTN and at DIV21 only few axonal processes were visible (FIGS. 5B and 5D). […] These findings shown that human-specific activity-regulated factor OSTN is a regulator of the axonal growth in human neurons.

[3] = system: human neurons; assay: neuronal survival assay: number of MAP2 positive cells; conditions: about 80,000 to about 130,000 cells/cm^2, where neighboring neurons could provide trophic support
Procedure: FIGS. 4A-4C are experimental data showing that osteocrin promotes human neuronal survival. FIGS. 4A-4B are fluorescent images showing culture of primary human neurons with or without recombinant OSTN. In FIGS. 4A-4B, primary human neurons were cultured for 10 days in vitro with and without recombinant OSTN (˜50 ng/ml), fixed and immunostained with neuronal marker MAP2 and nuclear marker DAPI. FIG. 4C is a quantitative bar graph showing the number of MAP2 positive neurons per measured area at DIV10 in human neuronal cultures with or without recombinant OSTN. The data are represented as mean±SEM. As used herein throughout the specification, the abbreviation “DIV” stands for Day In Vitro, i.e., the number of days neurons have grown in culture.
As presented herein, the inventors discovered OSTN as a human-specific activity-regulated secreted molecule. […] Neurons were grown, e.g., at a density of about 40,000 cells/cm^2, in the presence or absence of OSTN (e.g., ˜50 ng/ml) for a period of time, e.g., about 6 days between DIV4 to DIV10. After the period of time (e.g., about 6 days), samples were fixed and stained for dendritic and/or nuclear markers (FIGS. 4A-4B). Neuronal survival was assayed, for example, by quantifying the number of MAP2 positive cells after the neurons were cultured with or without OSTN for a pre-determined period of time (e.g., detected at DIV10). […]

[4] = system: osteocrin expression; assay: induction of osteocrin expression in human cultures; conditions: addition to human cultures
[5] = recombinant OSTN ~50 ng/mL, about 10 days in vitro

Molecule	dendritic density following OSTN treatment ([1]; data not shown)	total dendritic length following OSTN treatment ([1]; data not shown)	expression of PSD95 and synapsin (immunostaining) compared to control neurons [1, 5]	network of microtubules (MAP2 immunostaining) compared to control neurons [1, 5]	increase in excitatory synapse density as compared to mock-treated controls ([1]; recombinant human OSTN protein, increasing concentrations (~0.5-~50 ng/mL), after about 6 days, closely apposed pre- and post-synaptic puncta along dendrites)	number of neuronal cells (MAP2-positive) in the chambers with OSTN treatment ([2]; recombinant OSTN ~100 ng/ml, DIV21)	axonal growth in the presence of OSTN ([2]; recombinant OSTN ~100 ng/ml, about 21 days in vitro, imaged live and neurofilament stained)	increase in axonal growth of human neurons as compared to neural cells without treatment of OSTN ([2]; summary statement in the description)	significant increase in neuronal survival at standard or higher densities [3]	effect on induction of osteocrin expression [4]
OSTN: recombinant human osteocrin protein; a secreted protein produced by cells of the osteoblast lineage (protein, listed as Homo sapiens) MLDWRLASAHFILAVTLTLWSSGKVLSVDVTTTEAFDSGVIDVQSTPTVREEKSATDLTAKLLLLDELVSLENDVIETKKKRSFSGFGSPLDRLSAGSVDHKGKQRKVVDHPKRRFGIPMDRIGRNRLSNSRG	Increases were also observed	Increases were also observed	expressed higher levels of PSD95 and synapsins	formed a denser network of microtubules	at least 3 fold	did not appear to change	neurons grow axons of dramatic lengths and complexities	at least 2 fold	not observed	–
BDNF: a neuronal activity-regulated secreted factor (protein, UniProt P23560 19-247, looked up) Neurotrophic factor BDNF …: APMKEANIRGQGGLAYPGVRTHGTLESVNGPKAGSRGLTSLADTFEHVIEELLDEDQKVRPNEENNKDADLYTSRVMLSSQVPLEPPLLFLLEEYKNYLDAANMSMRVRRHSDPARRGELSVCDSISEWVTAADKKTAVDMSGGTVTVLEKVPVSKGQLKQYFYETKCNPMGYTKEGCRGIDKRHWNSQCRTTQSYVRALTMDSKKRIGWRFIRIDTSCVCTLTIKRGR	–	–	–	–	–	–	–	–	–	does not have any significant effect
